Source: patent US20030040012A1 (published 2003)

Legend:
[1] = molecular target: T1, fusion protein NpwBP(P2)-GFP (UniProt P42212 1-238 = GFP, limits assumed); assay: co-expression in COS7 cells, fluorescence microscopy of GFP localization
T1 construct: Expressed inside COS7 cells from pKA1-NpwBP(P2)-GFP; also called NpwBP-GFP
Protocol: After the medium was removed, the cell sur were washed with a phosphate buffer solution (PBS), and then further washed with a 50 mM Tris-HCl (pH 7.5)-containing DMEM. To these cells, added was a suspension comprising 1 μl of a plasmid suspension, 0.6 ml of DMEM and 3 μl of […]™ (from IBF), and incubated in the presence of 5% CO₂ at 37° C. for 12 hours. Then, the cells were washed with PBS, and fixed with 4% peraformaldehyde-containing PBS at room temperature for 10 minutes. The thus-fixed cells were washed with PBS, then treated with 0.2% Triton X-100, and thereafter blocked with 5% milk PBS. […]
First, pKA1-NpwBP(P1)-GFP or pKA1-NpwBP(P2)-GFP was singly introduced into COS7 cells, and the localization of these fusion proteins in the cells was checked through fluorescence microscopy based on the green fluorescence of GFP as the index thereof. […] Next, along with these NpwBP-GFP fusion protein expression vectors, an Npw38 expression vector, pKA1-Npw38 was introduced into COS7 cells, and the green fluorescence was localized in the nucleus of each cell (FIG. 3b). […] On the other hand, when Npw38(W52A) (A. Komuro et al., Nucl. Acids Res., 27: 1957-1965, 1999), which is a WW domain variant of Npw38, was expressed in the cells in place of HA-Npw38, or when GFP was expressed in the cells in place of NpwBP-GFP, no intranuclear localization of the green fluorescence was found.

NpwBP = molecular target: T2, NpwBP (Homo sapiens (Human), UniProt Q9Y2W2 1-641); assay: competition by co-expression in COS7 cells, GFP localization
T2 construct: Expressed inside COS7 cells, without an added protein A because it has its own nuclear localization signal
T2 sequence: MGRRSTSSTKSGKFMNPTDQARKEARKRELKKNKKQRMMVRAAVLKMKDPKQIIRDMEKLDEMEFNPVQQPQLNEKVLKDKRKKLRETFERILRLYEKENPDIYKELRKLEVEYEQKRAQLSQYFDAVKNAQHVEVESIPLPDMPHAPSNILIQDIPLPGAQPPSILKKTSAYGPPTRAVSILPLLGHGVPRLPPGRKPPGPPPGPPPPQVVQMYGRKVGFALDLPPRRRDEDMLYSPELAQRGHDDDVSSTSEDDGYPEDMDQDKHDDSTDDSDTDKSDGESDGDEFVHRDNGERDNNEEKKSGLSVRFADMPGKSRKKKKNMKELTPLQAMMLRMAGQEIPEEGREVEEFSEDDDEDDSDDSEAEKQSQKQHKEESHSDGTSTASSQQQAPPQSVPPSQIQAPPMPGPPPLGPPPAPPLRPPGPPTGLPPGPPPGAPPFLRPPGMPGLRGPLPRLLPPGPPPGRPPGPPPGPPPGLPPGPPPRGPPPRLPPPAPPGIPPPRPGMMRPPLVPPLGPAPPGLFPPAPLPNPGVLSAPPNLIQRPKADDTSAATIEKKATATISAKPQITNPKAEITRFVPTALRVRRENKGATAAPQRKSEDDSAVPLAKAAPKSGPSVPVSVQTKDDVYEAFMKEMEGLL

Binder	binding result [1]	binding result (NpwBP)
fusion protein HA-Npw38 (other, All are treated as the same molecule; not shown: HA tag (protein A of fusion A-X)) MPLPVALQTRLAKRGILKHLEPEPEEEIIAEDYDDDPVDYEATRLEGLPPSWYKVFDPSCGLPYYWNADTDLVSWLSPHDPNSVVTKSAKKLRSSNADAEEKLDRSHDKSDRGHDKSDRSHEKLDRGHDKSDRGHDKSDRDRERGYDKVDRERERDRERDRDRGYDKADREEGKERRHHRREELAPYPKSKKAVSRKDEELDPMDPSSYSDAPRGTWSTGLPKRNEAKTGADTTAAGPLFQQRPYPSPGAVLRANAEASRTKQQD	binds	binds
Npw38(W52A), a WW domain variant of Npw38 (other, Expressed in COS7 cells in place of HA-Npw38) MPLPVALQTRLAKRGILKHLEPEPEEEIIAEDYDDDPVDYEATRLEGLPPSAYKVFDPSCGLPYYWNADTDLVSWLSPHDPNSVVTKSAKKLRSSNADAEEKLDRSHDKSDRGHDKSDRSHEKLDRGHDKSDRGHDKSDRDRERGYDKVDRERERDRERDRDRGYDKADREEGKERRHHRREELAPYPKSKKAVSRKDEELDPMDPSSYSDAPRGTWSTGLPKRNEAKTGADTTAAGPLFQQRPYPSPGAVLRANAEASRTKQQD	no binding	
